Results published in US20100021490A1 (INSTITUT NATIONAL DE LA RECHERCHE AGRONOMIQUE INRA, published 2010).

Target: T1, N protein of measles virus (Edmonston B strain) (measles virus, Edmonston B strain, UniProt P0DXN6 1-525, limits assumed)
T1 construct: The construct is not described; also called measles virus N protein
T1 sequence: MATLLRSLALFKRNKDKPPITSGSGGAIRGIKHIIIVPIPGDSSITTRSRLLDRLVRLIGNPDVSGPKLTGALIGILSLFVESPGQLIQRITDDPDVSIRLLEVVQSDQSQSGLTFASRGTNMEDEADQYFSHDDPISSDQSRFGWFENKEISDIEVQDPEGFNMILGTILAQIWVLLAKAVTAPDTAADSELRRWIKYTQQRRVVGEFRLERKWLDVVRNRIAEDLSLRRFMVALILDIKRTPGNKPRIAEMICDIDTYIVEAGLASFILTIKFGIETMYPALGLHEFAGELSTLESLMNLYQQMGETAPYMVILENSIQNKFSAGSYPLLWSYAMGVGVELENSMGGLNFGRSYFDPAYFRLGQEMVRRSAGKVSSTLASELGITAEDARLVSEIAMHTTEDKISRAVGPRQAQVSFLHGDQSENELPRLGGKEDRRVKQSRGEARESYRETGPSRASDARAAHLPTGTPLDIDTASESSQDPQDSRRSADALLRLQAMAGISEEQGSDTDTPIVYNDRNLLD
Assay: coexpression of the P fragment with N, co-purification

B1: PΔ457N (C-terminal fragment of the measles virus P protein with the N-terminal portion deleted up to residue 456 inclusive) (other, not shown: a dimerising Fc or GST)
chain: GPASRSVIRSIIKSSRLEEDRKRYLMTLLDDIKGANDLAKFHQMLMKIIMK
notes: also called measles PΔ457N
- binding result: no binding
